Measurements published in the RNAGym collection of RNA variant scans (doi:10.1073/pnas.2313332121).

B1: TPR t1 (parent)
chain: GACCAAUCUGCCCUCAGAGCUCGAGAACAUCUUCGGAUGCAGAGGAGGCAGGCUUCGGUGGCGCGAUAGCGCCAACGUCCUCAACCUCCAAUGCAUCCCACCACAUGAUGAUGCCUGAAGAGCCUUGGUUUUUUG

Variants of: B1
Assay: polymerase ribozyme fitness, log enrichment relative to wild type (log ratio); higher = more active; in vitro selection for triplet polymerase activity
In short: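 Input and output libraries were sequenced on Illumina after a single in vitro selection round, run in triplicate on PCR-built, transcribed mutant libraries of each subunit of a heterodimeric triplet polymerase ribozyme. Selection annealed libraries to a biotinylated primer, the partner subunit and triplets, incubated them frozen at −7 °C, then gel-excised extended constructs for streptavidin-bead capture and RT-PCR. Genotypes with ≥10 input reads and ≥1 read per output were kept. Fitness is the logarithm, taken in base 2, of genotype enrichment divided by wild-type enrichment, using inverse-variance-weighted replicate averages.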

| Variant | polymerase ribozyme fitness (log ratio) |
| --- | --- |
| GACCAAUCUGCCCUCAGAGCUCGAGAACAUCUUCGGAUGCAGAGGAGGCAGACUUCGGUGGCGCGAUAGCGCCAACGUCCUCAACCUCCAAUGCAUCACACCACAUGAUGAUGCCUGAAGAGCCUUGGUUUUUUG | -4.54 |
| GACCAAUCUGGCCUCAGAGCUCGAGAACAUCUUCGGAUGCAGAGGAGGCAGGCUUCGGUGGCGCGAUAGCGCCAACGUCCUCAACCUCCAAGGCAUCCCACCACAUGAUGAUGCCUGAAGAGCCUUGGUUUUUUG | -2.49 |
| GACCAAUCUGCCCUCUGAGCUCGAGAACAUCUUCGGAUGCAGAGGAGGCAGGCUUCGGUGGCGCGAUAUCGCCAACAUCCUCAACCUCCAAUGCAUCCCACCACAUGAUGAUGCCAGAAGAGCCUUGGUUUUUUG | -1.32 |
| GACCAAUCUGCCCUCUGAGCUCGAGAACAUCUUCGGAUGCAGAGAAGGCAGGCUUCGGUGGCGCGAUAGUGCCAACGUCCUCAACCUCCAAUGCAUCCCACCACAUGAUGAUGCCUGUAGAGCCUUGGUUUUUUG | -2 |
| GACCGAUCUGCCCUCAGAGCUCGAGAACAUCUUCGGAUGCAGAGGAGGCAGGCUUCGGUGGCACGAUAGCGCCAACGUCCUCAACCUCCAAUGCAUCCCACCACAUGAUGAUGCCUGAAGAGCCUUGGUUUUUUG | -1.41 |
| GACCAAUCUGCCCUCAGAGCUCGAGAACAUCUUCGGAUGCAGAGAAGGCAGGCUUCGGUGGCGCGAUAGCGCCAACGUCCUCAACCUCCAAUGCAUCCCACCACAUGAUGAUGCCUGAAGAGCCUUGGUUUUUUU | -1.9 |
| GACCAAUCUGCCCUCAGAGCUCGAGAACAUCUUCGGAUGCAGAGGAGGCAGGCUUCGGUGGCGCGAUAGCGCCAACGUCCUCAACCUCCAAUGUAUCCCACCACAUGAUGAUGCUUGAAGGGCCUUGGUUUUUUG | -2.09 |
| GACCAAUCUGCCCUCAGAGAUCGAGAAAAUCUUCGAAUGCAGAGGAGGCAGGCUUCGGUGGCGCGAUAGCGGCAACGUCCUCAACCUCCCAUGCAUCCCACCACAUGAUUAUGCCUGAAGAGCCUUGGUUUUUUG | -6.43 |
| GACCAAUCUGCCCUCAGAGCUCGAGAACAUCUUCGGAUGCAGAGGAGGCAGGCUUCGGUGGCGCGAUUGCGCCAACGUACUCAACCUCCAAUGCAUCCCACCAAAUGAUGUUGCCUGAAGAGCCUUGGUUUUUUG | -8.01 |
| GACCAAACUGCCCUCAGAGCUCGAGAACAUCUUCGGAUGCAGAGGAGGCAGGCUUCGGUGGCGCGAUAGCGCCAACGUCCUCAACCUCCAAUGCAUCCCACCACAUGAUGAUGCCUGAAGAGCAUUGGUUUUUUG | 2.16 |
| GACCAAUCUGCCCUCAGAGCUCGAGAACAUCUUCGGAUGAAGAGGAGGCAGGCUUCGGUGGCGCGAUAGCGCCAACGUCCUCAACCUCCAAUGGAUCCCACCACAUGAUGAUGCCUGAAAAGCCUUGGAUUUUUG | -3.13 |
| GACCAAUCUGCCCUCAGAGCUCGAGAACAUCUUCGGAUGCAGAGGAGGCAGGCUUCGGUGGCGCGAUAGCGCCAACGUCCUCACCCUGCAAUGCAUCCCACCACAUGAUGAUGCCUGAAGAGCCUUGGUUUUUUG | -0.958 |
| GACCAAUCUGCACUCAGAGCUCGAGAACAUCUUCGGAUGCAGCGGAGGCAGGUUUCGGUGGCGCGAUAGCGCCAACGUCCUCAACCUCCAAUGCAUCCCACCACAUGAUGAUGCCUGAAGAGCCUUGGUUUUUUG | -2.86 |
| GACCAAUCUGCCCUCAGAGCUCGAGAACAUCUUCGGAUGCAGAGGUGGCAGGCUUCGGUGGCGCGAUAGCGCCAACGUCAUCAACCUCCAAUGCAUCCCACCACAUGAUGAUGCCUGAAGAGCCUUGGUUUUUUG | -4.71 |
| GACCAAUCUGCCCUCAGAGCUCGAGAACAUCUUCGGAUGCAGAGGAGGCAGCCUUCGGUGGCGCGAUAGUGUCAACGUCCUCAACCUCCAAUGCAUCCCACCACAUGAUGAUGCCUUAAGAGCCUUGGUUUUUUG | -4.23 |
| GGCCCAUCUGACCUCAGAGCUCGAGAACAUCUUCGGAUGCAGAGGAGGCAGGCUUCGGUGGCGCGAUAGCUCCAACGUCCUCAACCUCCAAUGCAUCCUACCACAUGAUGAUGCCUGAAGAGCCUUGGUUUUUUG | -3.65 |
| GACCAAUCUGCCCUCAGAGCUCGAGAACAUCUUCGGAUGCAGAGGAGGCAGGCUUCGGUGGCGCGAUAGCGCCAACGUCCUGAACCUCCAAUGCAUCCCACCACAUAAUGAUGCCUGAAGAGCCUUGGUUUUUUG | -6.96 |
| GACCAAUCUGCCCUCAGUGCUUGAGAACAUCUUCGGUUGCAGAGGAGGCAGGCUUCGGUGGCGCGAUAGCGCCAACGUCCUCAACCUCCAAUGCAUCCCACCACAUGAUGAUGCCUGUAGAGCCUUGGUUUUUUG | -5.28 |
| GACCAAUCUGCCCUCAGAGCUCGAGAACAUCUUCGGAUGCAGAGGAGGCAGGCUUCGGUGGCGCGAUAGCGCCAACGUCCUCAACCUCCAAUGCAUCCCACAACAUGAUGAUGCCUGAAACGCUUUGGUUUUUUG | -0.193 |
| GACCAAUCUGCCCUCAUAGCUCGAGAACAUCUUCGGAUGCAGAGGAGGCAGGCUUUGGUGGCGCGAUAGCGCCAACGUCCUCAACCUCCAAUGCAUCCCACCACAUGAUGAUGCCUGAAGAGCCUUGGUUUUUUG | -2.12 |
| GACCAAUCUGCUCUCAGAGCUCGAGAACAUCUUCGGAUGCAGAGGAGGCAAGCUUCGGUGGCGCGAUAGCGCCAACGUCCUCAACCUCCAAUGCAUCCCACCACAUGAUGAUGCCUGAAGAGCCUUGGUUUUUUG | -2.09 |

| Variant | polymerase ribozyme fitness (log ratio) |
| --- | --- |
| GACCAAUCUGCCCUCAGAGCUCGAGAACAUCCUCGGAUGCAGAGGAGGCAGGCUUCGGUGGCGCGAUAGCGCCAACGUCCUCAACCUCCAAUGCAUCCCACCACAUGAUGAUGCCUGAAGAGCCUUGGUUUUUUG | 0.135 |
| GAUCAAUCUGCCCUCAGAGCUCGAGAACAUCUUCGGAUGCAGAGGAGGCAGGCUUCGGUGGCGCGAUGGCGCCAACGUCCUCAACCUCCAAUGCAUCCCACCACAUGAUGAUGCCUGAAGAGCCUUGGUUUUUUG | -3.05 |
| GACCAAUCUGCCCUCAGAGCUCGAGAACAUCUUCGGAUGCAGAGGAGGCAGGCUUCGGUGGCGCGAUAGCGCCAACGUGCUCAACCUCCAAUGCAUCCCACCACAUGAUGAUGCCUGAAGAGCCUUUGUUUUUUG | -2.87 |
| GACCAAUCUGCCCUCAGAGCUCGAGAACAUCUUCGGAUGCAGAGGAGGCAGGCUUCGGUGGCGCGAUAUCGCCAACGUCCUCAACCUCCAAUGCAUCCCACCACAUGAUCAUGCCUGAAGAGCCCUGGUUUUUUG | -1.52 |
| GACCAAUCUGCCCUCAGAGCUCGAGAACAUCUUCGGAUGCAGAGGAGGUAGGCUUCGGUGGCGCGAUAGCGCAUACGUCCUCAACCUCCAAUGCAUCCCACUACAUGAUGAUGCCUGAAGAGCCUUGGUUUUUUG | -3.4 |
| GACCAAUCUGCCCUCAGAGCUCGAGAACAUCUUCGGAUGCAGAGGAGGCAGGCUUCGGUGGCGCGAUAGCGCCAACGUCCGCAACUUCCAAUGCAUCCCACCACAUGAUGAUGCCUGAAUAGCCUUGGUUUUAUG | -4.01 |
| GACCAAUCUGCCCUCAGAGCUCGAGAACAUCUUCGGAUGCAGAGGAGGCAGGCUUCGGUGGCGCGAUAGCGCCAACGUCCUCAACCUCCAAUGCAUCCCACCACAUGAUGAUGCCUGAAUAGCCUUGGUUUUUUU | -1.2 |
| GACCAAUCUGCCCUCAGAUCUCGAGAACAUCUUCGGUUGCAGAGGAGGCAGGCUGCGGUGGCGCGAUAGCGCCAACGUCCUCAACCUCCAAUGCAUCCCACCACAUGAUGAUGCCUGAAGAGCCUUGGUUUUUUG | -4.52 |
| GAUCAAUCUGCCCUCAGAGCUCGAGAACAUCUUCGGAUGCAUAGGAGGCAGGCUUGGGUGGCGCGAUAGCGCCAACGUCCUCAACCUCCAAUGCAUCCCACCACAUGAUGAUGCCUGAAGAGCCUUGGUUUUUUG | -2.49 |
| GACCAAUCUGCCCUCAGAGCUGGAGAACAUCUUCGGAUGCAGAGGAGGCAGGCUUCGGUGGCGCGAUAGCGCCCACGUCCUCAACCUCCAAUGCAUCCCACCACAUGAUGAUGCCUGAAGAGCCUUGGUUUUUUG | -3.02 |
| GACCAAUCUGCCCUCAGAUCUCGAGAACAUCUUCGGAUGCAGAGGAGGCAGGCUUCGGUGGCGCGAUAUCGCCAACGUCCUCAACCUCCAAUGCAUCCCACCACAUGAUCAUGCCUGAAGAGCCUUGGUUUUUUG | -3.55 |
| GACCAAUCUGCCCUCAGAGCUCGAGAACAGCUUCGGAUGCAGUGUAAGAAGGCUUCGGUGGCGCGAUAGCGCCAACGUCCUCAACCUCCAAUGCAUCCCACCACAAGAUGAUGCCUGAGGAGCCUUGGUUUUUUG | -4.24 |
| GACCAAUCUGCUCUCACAGCUCGAGAACAUCUUCGGAUGCAGAGGAGGCAGGCUUCGGUGGCGCGAUAGCGCCAACGUCCUCAACCUCCAAUGCAUCCCACCACAUGAUGAUGCCUGAAGAGCCUUGGUUUUUUG | -3.21 |
| GACCAAUCUGCCCUCAGAGCUCGAGAACAUCUUCGGAUGCAGAGGAGGCUGGCUUCGGUGGCGCGAUAGCGCCAACGUCCUCAACCUCCAAUGCAUCCCACCACAUGAUGAUGCCUGAAGAGCCGUGGCUUUUUG | -2.41 |
| GACCAAUCUGCCCUAAGAGCUCGAGAACAUCUUCGGAUGCAUAGGAGGCAGGCUUCGGUGGCGCGAUAGCGCCAACGUCCUCAAUCUCCAAUGCAUCCCACCACAUGAUGAUGCCUGAACAGCCUUGGUUUUUUG | -1.73 |
| GACCAAUCUGCCCUCAGUGCUCGAGAACAUCUUCGGAUGCAGAGGAGGCAGGCUUCGGUGGCGUGAUAGCGCCAACGUCCUCAACCUCCAAUGCAUCCCACCACAUGAUGAUGCCUGAAGAGCCUUGGUUUUUUG | -2 |
| GACCAAUCUGCCCUCAGAGCUCGAGAACAUCUUCGGAUGCAGAGGAGGCAGGCUUAGGUGGCGCGAUAUCGCCAACGUCCUCAACCUCCAAUGCAUCCCACCACAUGGUGACGCCUAAAGAGCCUUGGUUUUUCG | -3.02 |
| GGCCAAUCUGCUCUCAGAGCUCGAGAACAUCUUCGGAUGCAGAGGAGGCAGGCUUCGGUGGCGCGGUAGCGCCAACGUACUCAACCUCCAAUGCAUCCCACCACAUGAUGAUGCCUGAAGAACCUUGGUUUUUUG | -2.62 |
| GUCAAAUCUGCCUUCAGAGCUCGAGAACAUCUUCGGAUGCAGAGGAGGCAGGCUUCGGUGGCGCGAUAGCGCCAACGUCCUCAACCUCCAAUGCAUCCCACCACAUGAUGAUGCCUGAAGAGACUUGGUUUUUUG | 1.02 |
| GACCAAUUUGCCCUCAGAGCUCGAGAACAUCUUCGGAUGCAGAGGAGGCAGGCUUCGGUGGCGCGAUAGCGCCAACGUCCUCAACCUCCAAUAUAUCCCACCACAUGAUGAUGCCUGUAGAGCCUUGGUUUUUUG | -0.514 |
| GACCAAUCUGCCCUCAGAGCUCGAGAACAUCUUCGCAUGCAGAGGAGGCAGGCUUCGGUGGCGCGAUAGCGCCAACGUCCUGAACCUCCAAUGCAUCCCACCACAUGAUGAUGCCUGAAGAGCCUCGGUUUUUUG | -2.57 |
